The sequences below were run on Escherichia coli TOP10 (assay: shrunken log2 fold change of peptide-encoding DNA abundance (4.5 h post-induction vs induction); higher = less antimicrobial activity (less host growth inhibition)). Settings: time post-induction: 4.5 h; library: site-saturation at positions 5, 18, 19, 20.
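Further: peptides expressed intracellularly from a pBAD plasmid library in pooled LB shake-flask culture, induced with 0.3% L-arabinose, DNA abundance read by NGS, three biological replicates, DESeq2 with apeglm shrinkage.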

Row | Sequence | shrunken log2 fold change
1 | RRIRMRPPRLPRPRPRPRDVPRP | 0.372
2 | RRIRDRPPRLPRPRPRPQLAPRP | 0.505
3 | RRIRHRPPRLPRPRPRPYKIPRP | -0.373
4 | RRIRPRPPRLPRPRPRPSLAPRP | 0.185
5 | RRIRVRPPRLPRPRPRPKYGPRP | -0.141
6 | RRIRVRPPRLPRPRPRPGLWPRP | 0.76
7 | RRIRPRPPRLPRPRPRPVIQPRP | -0.203
8 | RRIRSRPPRLPRPRPRPQHLPRP | -0.372
9 | RRIRKRPPRLPRPRPRPKNWPRP | 0.474
10 | RRIRVRPPRLPRPRPRPSGMPRP | 0.489
11 | RRIRDRPPRLPRPRPRPWGGPRP | 0.422
12 | RRIRGRPPRLPRPRPRPKHEPRP | 0.679
13 | RRIRKRPPRLPRPRPRPREMPRP | -0.0629
14 | RRIRPRPPRLPRPRPRPVCFPRP | -0.027
15 | RRIRDRPPRLPRPRPRPTPQPRP | 0.0786
16 | RRIRPRPPRLPRPRPRPCKMPRP | -0.223
17 | RRIRIRPPRLPRPRPRPTGRPRP | -0.0536
18 | RRIRLRPPRLPRPRPRPSTPPRP | -0.207
19 | RRIRFRPPRLPRPRPRPGQVPRP | -0.131
20 | RRIRLRPPRLPRPRPRPRNVPRP | -0.116

Row | Sequence | shrunken log2 fold change
21 | RRIRPRPPRLPRPRPRPAGMPRP | -0.00962
22 | RRIRARPPRLPRPRPRPAVPPRP | 0.848
23 | RRIRNRPPRLPRPRPRPATCPRP | -0.00428
24 | RRIRCRPPRLPRPRPRPNLKPRP | -0.585
25 | RRIRCRPPRLPRPRPRPDRKPRP | -0.458
26 | RRIRSRPPRLPRPRPRPFFSPRP | -0.13
27 | RRIRIRPPRLPRPRPRPERWPRP | 1.8
28 | RRIRNRPPRLPRPRPRPYMEPRP | -0.0924
29 | RRIRCRPPRLPRPRPRPQQHPRP | -0.113
30 | RRIRYRPPRLPRPRPRPRWKPRP | -0.295
31 | RRIRWRPPRLPRPRPRPFQDPRP | -0.496
32 | RRIRHRPPRLPRPRPRPCCYPRP | -0.496
33 | RRIRCRPPRLPRPRPRPYRFPRP | -0.746
34 | RRIRGRPPRLPRPRPRPYVWPRP | 0.131
35 | RRIRKRPPRLPRPRPRPVCSPRP | 0.0361
36 | RRIRQRPPRLPRPRPRPLFFPRP | -0.00141
37 | RRIRGRPPRLPRPRPRPMDAPRP | 0.322
38 | RRIRTRPPRLPRPRPRPVQKPRP | 0.296
39 | RRIRLRPPRLPRPRPRPILMPRP | 0.0581
40 | RRIRCRPPRLPRPRPRPSREPRP | -0.184

Row | Sequence | shrunken log2 fold change
41 | RRIRTRPPRLPRPRPRPCNPPRP | -0.0887
42 | RRIRHRPPRLPRPRPRPNMRPRP | 0.0719
43 | RRIRYRPPRLPRPRPRPQWCPRP | -0.219
44 | RRIRHRPPRLPRPRPRPIHVPRP | 0.0364
45 | RRIRCRPPRLPRPRPRPICKPRP | 0.0601
46 | RRIRTRPPRLPRPRPRPAEPPRP | 0.392
47 | RRIRMRPPRLPRPRPRPLILPRP | -0.429
48 | RRIRIRPPRLPRPRPRPCYKPRP | -0.049
49 | RRIRVRPPRLPRPRPRPVMSPRP | -0.213
50 | RRIRHRPPRLPRPRPRPLAAPRP | 0.325
51 | RRIRYRPPRLPRPRPRPHYLPRP | -0.285
52 | RRIRLRPPRLPRPRPRPVVCPRP | -0.0501
53 | RRIRFRPPRLPRPRPRPKHKPRP | -0.265
54 | RRIRPRPPRLPRPRPRPNFHPRP | -0.169
55 | RRIRWRPPRLPRPRPRPELHPRP | 0.308
56 | RRIRMRPPRLPRPRPRPRICPRP | 0.113
57 | RRIRYRPPRLPRPRPRPQKTPRP | -0.0404
58 | RRIRGRPPRLPRPRPRPSLLPRP | 0.547
59 | RRIRDRPPRLPRPRPRPHCLPRP | 0.12
60 | RRIRARPPRLPRPRPRPTWYPRP | -0.00985

Source: the supplement of paper PMC9112550, “Optimization of the antimicrobial peptide Bac7 by deep mutational scanning” (BMC Biology, 2022)
